# T1: human truncated-sCD25 (aa1-212 of NP_000408, C-terminal 8-histidine) (human, UniProt P01589 22-212)
# T1 construct: range 1-212; Secreted from stably transfected HEK293F cells and purified on Ni-NTA; No signal peptide cleavage site is stated; also called hCD25-trunc
# T1 sequence: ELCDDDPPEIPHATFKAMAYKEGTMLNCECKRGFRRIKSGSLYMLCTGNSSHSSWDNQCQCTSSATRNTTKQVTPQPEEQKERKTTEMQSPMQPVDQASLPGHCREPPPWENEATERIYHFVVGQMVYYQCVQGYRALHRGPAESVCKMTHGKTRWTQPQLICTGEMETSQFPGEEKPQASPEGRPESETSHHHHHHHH
# T2: human sCD25(C213T) (aa1-240 of NP_000408 with C213T, C-terminal 8-histidine) (human, UniProt P01589 22-240)
# T2 construct: range 1-240; Secreted from stably transfected HEK293F cells and purified on Ni-NTA; the inserted alanine shifts positions in the construct by one; No signal peptide cleavage site is stated; also called hCD25-C213T
# T2 sequence: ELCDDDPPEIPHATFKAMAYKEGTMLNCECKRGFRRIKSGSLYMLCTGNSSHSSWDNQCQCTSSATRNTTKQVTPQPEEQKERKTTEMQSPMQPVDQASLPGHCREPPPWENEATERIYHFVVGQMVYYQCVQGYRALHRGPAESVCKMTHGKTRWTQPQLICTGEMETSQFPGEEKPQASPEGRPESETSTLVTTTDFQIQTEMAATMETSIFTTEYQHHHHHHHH
# B1: mouse sCD25 (murine soluble CD25, aa1-208 of NP_032393, C-terminal 8-histidine) (receptor)
# chain: ELCLYDPPEVPNATFKALSYKNGTILNCECKRGFRRLKELVYMRCLGNSWSSNCQCTSNSHDKSRKQVTAQLEHQKEQQTTTDMQKPTQSMHQENLTGHCREPPPWKHEDSKRIYHFVEGQSVHYECIPGYKALQRGPAISICKMKCGKTGWTQPQLTCVDEREHHRFLASEESQGSRNSSPESETSHHHHHHHH
# notes: range 1-208; Secreted from stably transfected HEK293F cells and purified on Ni-NTA; The construct is defined as aa1-208, signal peptide included; also called murine sCD25; mCD25
# B2: recombinant murine IL-2 (accession number NP_032392) (ligand, mouse, UniProt P04351 21-169, looked up)
# chain: APTSSSTSSSTAEAQQQQQQQQQQQQHLEQLLMDLQELLSRMENYRNLKLPRMLTFKFYLPKQATELKDLQCLEDELGPLRHVLDLTQSKSFQLEDAENFISNIRVTVVKLKGSDNTFECQFDDESATVVDFLRRWIAFCQSIISTSPQ
# notes: also called mouse IL-2; mIL-2
# Columns and labels:
# [1] = biological target: T3, anti-mouse CD25-BV421 mAb (clone PC61); assay: Flow cytometry competition: mouse sCD25 (1-1000 nM) pre-incubated with BV421-PC61 for 1 h at 4 °C, then HEK cells expressing full-length mouse CD25 added; blocked: binding of the mAb to CD25 on the cells
# T3 construct: Commercial fluorochrome-conjugated mAb (Biolegend), mouse-specific; also called BV421-PC61; anti-mouse CD25 mAb
# Method: Then, HEKs expressing full-length transmembrane mouse CD25 or human CD25 were added to each tube and incubated for 1 hour at 4° C. and subsequently washed with HBSS two times prior to analyzing surface bound anti-CD25 mAbs by flow cytometry.
# [2] = biological target: T1, human truncated-sCD25 (aa1-212 of …); assay: SPR (Biacore T200), steady-state fit; mouse IL-2 (1000-3.9 nM) injected over immobilized human truncated-sCD25; mean ± SD of three injection series [cont'd.) C]
# Method: (§1) SPR experiments were performed on a Biacore T200 instrument at 25° C. using a flowrate of 30 μL min-1 in a running buffer of HBS-T (10 mM HEPES (pH 7.3), 140 mM NaCl, 0.005% Tween 20). Proteins were immobilized on a CMD200 biosensor chip (Xantec Bioanalytics) using ethyl-3-(3-dimethylaminopropyl)-carbodiimide (EDC)/N-hydroxysuccinimide/(NHS) coupling chemistry. […] A reference surface was created by EDC/NHS activation followed by a seven-minute injection of 1 M ethanolamine (pH 8.5). […] Surfaces were regenerated to baseline by injection of 2M NaCl for three minutes. Each injection series was performed in triplicate. The resulting reference-corrected sensorgrams were blank subtracted using an injection of HBS-T and fit to a steady-state model of binding using T200 Evaluation software. KD values and Rₘₐₓ values are reported as the mean±standard deviation (SD). All figures were prepared using Graphpad Prism 8.0.
# [3] = biological target: B1; assay: SPR (Biacore T200), steady-state fit; mouse IL-2 (1000-3.9 nM) injected over immobilized mouse sCD25; mean ± SD of three injection series
# Method: as §1
# [4] = biological target: T2, human sCD25(C213T) (aa1-240 of …; assay: SPR (Biacore T200), steady-state fit; mouse IL-2 (1000-3.9 nM) injected over immobilized human sCD25(C213T); mean ± SD of three injection series [cont'd.) B]
# Method: as §1
IC50 (read off the curve) [1] [nM],Kd [2] [nM],Kd [3] [nM],Kd [4] [nM],Binder
~5,,,,B1
,740,250,430,B2

# From US20240190935A1 (EAST CAROLINA UNIVERSITY, published 2024)
